Experimental findings from patent publication US20190070251A1 are described below.

Assay [1] deals with human µ opioid receptor (human), P35372. Description: radioligand competition with [3H]naloxone (5 nM), membranes of CHO-K1 cells with recombinant human µ opioid receptor; Ki by Cheng-Prusoff; sample pre-incubated 72 h at 37 C, pH 7.5 (partly released biphalin). (In general: Loss of bound radioactivity is the signal in a displacement assay; it reports binding, not function.)
The target is the same in assay [2]. Kind of assay: radioligand competition with [3H]naloxone (5 nM), membranes of CHO-K1 cells with recombinant human µ opioid receptor; Ki by Cheng-Prusoff; sample diluted on the day of the assay (unreleased).
Assay [3] concerns the target GPR54 G-Protein coupled receptor (cloned human GPR54) (human) (UniProt Q969F8). Description: cell-based or functional assay.
Assay [4] deals with human µ opioid receptor (human), P35372. Kind of assay: radioligand competition with [3H]naloxone (5 nM), membranes of CHO-K1 cells with recombinant human µ opioid receptor; Ki by Cheng-Prusoff; sample pre-incubated 20 h at 37 C, pH 7.5 (partly released biphalin).
Assay [5] shares this target. Kind of assay: radioligand competition with [3H]naloxone (5 nM), membranes of CHO-K1 cells with recombinant human µ opioid receptor; Ki by Cheng-Prusoff.
Assay [6] has the same target. The assay is described as above. The source holds these as a separate data set.
The target is the same in assay [7]. Description: radioligand competition with [3H]naloxone (5 nM), membranes of CHO-K1 cells with recombinant human µ opioid receptor; Ki by Cheng-Prusoff; sample pre-incubated 72 h at 37 C, pH 7.5.

Chain of human µ opioid receptor (human), P35372 (P35372 whole entry): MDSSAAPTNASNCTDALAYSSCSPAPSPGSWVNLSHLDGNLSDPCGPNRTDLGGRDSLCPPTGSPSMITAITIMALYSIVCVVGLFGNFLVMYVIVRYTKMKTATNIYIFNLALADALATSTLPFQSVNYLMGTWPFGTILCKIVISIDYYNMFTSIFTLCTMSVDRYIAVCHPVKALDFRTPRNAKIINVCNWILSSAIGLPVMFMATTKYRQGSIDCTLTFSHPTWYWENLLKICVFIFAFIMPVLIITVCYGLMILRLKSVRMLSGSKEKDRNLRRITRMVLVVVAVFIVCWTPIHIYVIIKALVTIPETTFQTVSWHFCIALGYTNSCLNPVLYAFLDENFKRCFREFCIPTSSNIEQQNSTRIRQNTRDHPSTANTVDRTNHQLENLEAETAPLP

YAGF (modifications not checked) [Di-CAC-PEG2-FMOC-NHS-20K-biphalin]: the Ki in assay [1] was 13.7 nM; in assay [2] it was 1120 nM.

B1: Kisspeptin-54 (peptide)
peptide: GTSLSPPPESSGSPQQPGLSAPHSRQIPAPQGAVLVQREKDLPNYNWNSFGLRF
modifications: C-terminal amide (-NH2)
Turning to B1, in assay [3], the EC50 (nM) of agonist activation at GPR54 (FLIPR calcium flux) came to 190 nM and the Fold change compared to metastin is 16 fold.
With YAGF (modifications not checked) [Di-C2-PEG2-FMOC-NHS-20K-biphalin], the Ki is 10.1 nM in assay [4] and 21.7 nM in assay [2].
As to LPNYNWNSFGLRF (C-terminal amide (-NH2)) [Kisspeptin-13], in assay [3], the EC50 (nM) of agonist activation at GPR54 (FLIPR calcium flux) was 11 nM and the Fold change compared to metastin was found to be 1 fold.
Regarding YAGF (modifications not checked) [Biphalin], the Ki in assay [5] came to 4.7 nM; in assay [6], 3.4 nM; in assay [7], 3.1 nM.

As usually defined, the Ki is a measure of affinity in units of concentration, obtained from inhibition or displacement.
